The values below come from publication PMC5437253.

Holding throughout (assay): SPR; Biacore 3000; antibodies immobilised on a CM5 chip by amine coupling at ~3000 RU; huFcRn flowed at 5 μl/min for 50 min, 19.5 nM to 10 μM, in PBS pH 5.8 with 5 mM EDTA and 0.05% Tween 20; steady-state fit
Background: SPR reads the build-up and loss of mass on a sensor chip optically.

Experiment [1] deals with L309AzK (human).
The target in experiment [2] is M252AzK (human).
In experiment [3] the target is L309AzK-CR110 (human).
Experiment [4] has as its target N434AzK (human).
For experiment [5], the target named is K288AzK-CR110 (human).
Experiment [6] addresses Q311AzK (human).
Experiment [7] deals with K248AzK-mPEG (human).
Experiment [8] addresses S254AzK-CR110 (human).
Experiment [9] has as its target L309AzK-mPEG (human).
In experiment [10] the target is S254AzK (human).
Experiment [11] addresses wild-type antibody (human).
Experiment [12] deals with N286AzK-mPEG (human).
For experiment [13], the target named is M252AzK-CR110 (human).
For experiment [14], the target named is K248AzK (human).
The target of experiment [15] is Q311AzK-mPEG (human).
For experiment [16], the target named is M252AzK-mPEG (human).
The target of experiment [17] is N384AzK-mPEG (human).
Experiment [18] addresses N384AzK-CR110 (human).
The target in experiment [19] is K288AzK (human).
Experiment [20] deals with N384AzK (human).
The target in experiment [21] is Q311AzK-CR110 (human).

Turning to “Recombinant human FcRn (from UniProt P55899 24-297; P61769 21-119) (receptor)”, the equilibrium dissociation constant (Kd) (as a rule, the concentration at which binding is half-saturated) in [1] worked out at 437 nM; in experiment [2], 249 nM; in experiment [3] it was 2040 nM; in experiment [4] it was 734 nM; in experiment [5], 558 nM; in experiment [6], 323 nM. The Kd in [7] was determined as 907 nM; in experiment [8] it was 2870 nM; in [9] it was 3270 nM; in experiment [10], 465 nM; in experiment [11], 538 nM; in experiment [12] it was 2830 nM. Moreover, the Kd came out at 2060 nM in experiment [13]; 378 nM in [14]; 3870 nM in experiment [15]; 3580 nM in experiment [16]; 756 nM in [17]; 702 nM in experiment [18]. The dissociation constant (Kd) in experiment [19] was 418 nM; in [20], 565 nM; in [21], 2050 nM.
